According to patent publication US20050244902A1:

Target: antiserum 98192
Assay: RIA, displacement of 125I-proBNP 1-10Tyr tracer from antiserum 98192

ratio of median inhibitory dose (ID50)	Binder
0.0006	LGSPGSASDLETSGLQEQR
0.001	PLGSPGSASDLETSGLQEQR [N-terminal truncated fragment of human proBNP 1-21 with the N-terminal histidine removed]
